Biological target: GST-ArhGAP12 ΔNΔP R582A (mouse (NIH 3T3 cDNA library)) (UniProt S4R248)
Test: BLI

fold reduction of binding affinity against wild type: 1300 fold
Substance: Rabbit skeletal muscle LatB-actin (from UniProt P68135 1-377) (natural protein)

Source: PMC6960015
